Data as given in the supplement of paper PMC10724198.
± gives the standard deviation of the averaged measurements.

Assays:
Saccharomyces cerevisiae [1] = assay: protein stability index of tFT-peptide fusion (C-terminal peptide) (PSI (0-1 scale)); higher = more stable (slower turnover); conditions: genetic background: wild type; temperature: 30 C
Saccharomyces cerevisiae [2] = assay: as above
Protocol: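 MPS profiling in S. cerevisiae of the tFT-X12 degron library: putative degron peptides plus stable controls, 12 aa, fused to the C-terminus of a sfGFP-mCherry timer. Cells are FACS-sorted into 8 mCherry/sfGFP bins and deep-sequenced. PSI runs from 0 (unstable) to 1 (stable). Backgrounds are wild type, das1Δ and doa10Δ at 30 °C, and wild type, das1Δ, cdc34-1 and cdc53-1 at 37 °C; 2-3 technical replicates each.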

[3] = genetic background: cdc34-1, temperature: 37 C
[4] = genetic background: cdc53-1, temperature: 37 C
[5] = genetic background: das1 deletion, temperature: 30 C
[6] = genetic background: das1 deletion, temperature: 37 C
[7] = genetic background: doa10 deletion, temperature: 30 C
[8] = genetic background: wild type, temperature: 30 C
[9] = genetic background: wild type, temperature: 37 C
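Note: PSI is a weighted mean of sequencing reads over stability bins, variants kept only with over 10 reads, mCherry proximal and sfGFP distal, peptide attached via GGGS linker.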

| Sequence | protein stability index (Saccharomyces cerevisiae [1]) | protein stability index (Saccharomyces cerevisiae [2]; [3]) | protein stability index (Saccharomyces cerevisiae [2]; [4]) | protein stability index (Saccharomyces cerevisiae [2]; [5]) | protein stability index (Saccharomyces cerevisiae [2]; [6]) | protein stability index (Saccharomyces cerevisiae [2]; [7]) | protein stability index (Saccharomyces cerevisiae [2]; [8]) | protein stability index (Saccharomyces cerevisiae [2]; [9]) |
| --- | --- | --- | --- | --- | --- | --- | --- | --- |
| GAICCFCCYLVF | 0.514 ± 0.043 | 0.554 ± 0.0089 | 0.625 ± 0.026 | 0.505 ± 0.028 | 0.626 ± 0.035 | 0.463 ± 0.025 | 0.47 ± 0.014 | 0.597 ± 0.031 |
| FSYLSFLPSLAA | 0.527 ± 0.048 | 0.545 ± 0.049 | 0.562 ± 0.034 | 0.466 ± 0.031 | 0.599 ± 0.017 | 0.442 ± 0.0053 | 0.468 ± 0.0066 | 0.5654 ± 0.0021 |
| WDPEVVHRLWLN | 0.237 ± 0.019 | 0.587 ± 0.037 | 0.772 ± 0.029 | 0.662 ± 0.034 | 0.766 ± 0.013 | 0.125 ± 0.0063 | 0.14 ± 0.0092 | 0.155 ± 0.019 |
| AFFFCVVVLFSF | 0.182 ± 0.044 | 0.194 ± 0.0078 | 0.233 ± 0.013 | 0.171 ± 0.027 | 0.289 ± 0.015 | 0.178 ± 0.018 | 0.176 ± 0.041 | 0.256 ± 0.054 |
| PFFFIFVLPFVF | 0.402 ± 0.011 | 0.456 ± 0.045 | 0.51212 ± 0.00041 | 0.366 ± 0.024 | 0.524 ± 0.0093 | 0.318 ± 0.027 | 0.309 ± 0.041 | 0.465 ± 0.0074 |
| QERKILGRIKQA | 0.265 ± 0.12 | 0.51 ± 0.078 | 0.6853 ± 0.00099 | 0.651 ± 0.05 | 0.7081 ± 0.0052 | 0.0853 ± 0.0029 | 0.0987 ± 0.035 | 0.161 ± 0.026 |
| PRLRPQTVAFLS | 0.2648 ± 0.0012 | 0.68 ± 0.038 | 0.732 ± 0.013 | 0.651 ± 0.011 | 0.721 ± 0.013 | 0.28 ± 0.02 | 0.313 ± 0.016 | 0.5179 ± 0.001 |
| GGWRVLHAWVAV | 0.463 ± 0.015 | 0.651 ± 0.045 | 0.682 ± 0.012 | 0.546 ± 0.019 | 0.6866 ± 0.00041 | 0.278 ± 0.0058 | 0.328 ± 0.023 | 0.553 ± 0.023 |
| GGTGGAGSRGQI | 0.499 ± 0.099 | 0.641 ± 0.069 | 0.741 ± 0.01 | 0.6181 ± 0.0046 | 0.724 ± 0.02 | 0.644 ± 0.0041 | 0.657 ± 0.011 | 0.7316 ± 0.007 |
| RVTYWKAVLVRL | 0.212 ± 0.016 | 0.47 ± 0.07 | 0.461 ± 0.022 | 0.44 ± 0.031 | 0.6 ± 0.017 | 0.108 ± 0.025 | 0.109 ± 0.025 | 0.13 ± 0.0084 |
| CLSGPFRSLAVF | 0.425 ± 0.038 | 0.545 ± 0.029 | 0.6286 ± 0.0025 | 0.485 ± 0.031 | 0.6326 ± 0.0051 | 0.341 ± 0.009 | 0.365 ± 0.023 | 0.5263 ± 0.0018 |
| SCFRFFFLFLFF | 0.322 ± 0.052 | 0.192 ± 0.011 | 0.197 ± 0.0042 | 0.282 ± 0.024 | 0.361 ± 0.016 | 0.4322 ± 0.00071 | 0.238 ± 0.043 | 0.312 ± 0.0097 |
| GVFFHFFFLFCF | 0.43 ± 0.013 | 0.332 ± 0.025 | 0.352 ± 0.01 | 0.324 ± 0.018 | 0.447 ± 0.0093 | 0.3913 ± 0.0038 | 0.297 ± 0.028 | 0.413 ± 0.0047 |
| TFRVRRQKNRNM | 0.236 ± 0.012 | 0.628 ± 0.021 | 0.692 ± 0.039 | 0.631 ± 0.022 | 0.725 ± 0.013 | 0.0838 ± 0.015 | 0.099 ± 0.013 | 0.217 ± 0.012 |
| FFLFLFFFLRGS | 0.467 ± 0.023 | 0.4853 ± 0.0033 | 0.53967 ± 0.00022 | 0.405 ± 0.025 | 0.533 ± 0.035 | 0.419 ± 0.03 | 0.402 ± 0.035 | 0.511 ± 0.021 |
| LSVSEILAVKCG | 0.489 ± 0.012 | 0.559 ± 0.034 | 0.584 ± 0.0073 | 0.429 ± 0.034 | 0.592 ± 0.026 | 0.363 ± 0.0039 | 0.411 ± 0.026 | 0.5632 ± 0.0052 |
| FCTSSRLLYCSA | 0.302 ± 0.01 | 0.177 ± 0.0029 | 0.222 ± 0.0037 | 0.206 ± 0.026 | 0.3192 ± 0.00046 | 0.175 ± 0.0018 | 0.202 ± 0.026 | 0.278 ± 0.0096 |
| RPAVVPPPFAPL | 0.76 ± 0.041 | 0.652 ± 0.032 | 0.724 ± 0.023 | 0.707 ± 0.0089 | 0.7172 ± 0.0055 | 0.708 ± 0.018 | 0.695 ± 0.01 | 0.6996 ± 0.003 |
| VFVLFLRAVACR | 0.0236 ± 0.013 | 0.0227 ± 0.0013 | 0.0336 ± 0.0004 | 0.0288 ± 0.0046 | 0.0423 ± 0.0022 | 0.0174 ± 0.0024 | 0.0193 ± 0.0039 | 0.0342 ± 0.015 |
| YCLSCLAKASLM | 0.28811 ± 0.00011 | 0.495 ± 0.036 | 0.606 ± 0.0019 | 0.524 ± 0.021 | 0.5686 ± 0.0039 | 0.164 ± 0.0029 | 0.19 ± 0.0066 | 0.38 ± 0.011 |

| Sequence | protein stability index (Saccharomyces cerevisiae [1]) | protein stability index (Saccharomyces cerevisiae [2]; [3]) | protein stability index (Saccharomyces cerevisiae [2]; [4]) | protein stability index (Saccharomyces cerevisiae [2]; [5]) | protein stability index (Saccharomyces cerevisiae [2]; [6]) | protein stability index (Saccharomyces cerevisiae [2]; [7]) | protein stability index (Saccharomyces cerevisiae [2]; [8]) | protein stability index (Saccharomyces cerevisiae [2]; [9]) |
| --- | --- | --- | --- | --- | --- | --- | --- | --- |
| VGVIGWGGLGVG | 0.492 ± 0.00099 | 0.486 ± 0.048 | 0.5527 ± 0.0051 | 0.487 ± 0.019 | 0.549 ± 0.015 | 0.4929 ± 0.0046 | 0.485 ± 0.014 | 0.542 ± 0.023 |
| CLFFLVYELSIL | 0.317 ± 0.021 | 0.256 ± 0.017 | 0.352 ± 0.048 | 0.257 ± 0.023 | 0.434 ± 0.016 | 0.2162 ± 0.00051 | 0.246 ± 0.0069 | 0.387 ± 0.0045 |
| FLMLFVVLWLFL | 0.366 ± 0.076 | 0.427 ± 0.026 | 0.46 ± 0.0076 | 0.394 ± 0.028 | 0.522 ± 0.071 | 0.389 ± 0.014 | 0.369 ± 0.04 | 0.448 ± 0.0072 |
| IFIVLDFRCVSS | 0.339 ± 0.016 | 0.302 ± 0.1 | 0.463 ± 0.024 | 0.256 ± 0.016 | 0.4371 ± 0.0012 | 0.243 ± 0.011 | 0.242 ± 0.043 | 0.381 ± 0.046 |
| VYRILFWFLCFG | 0.4679 ± 0.0011 | 0.489 ± 0.023 | 0.406 ± 0.072 | 0.422 ± 0.026 | 0.564 ± 0.043 | 0.4545 ± 0.0021 | 0.412 ± 0.01 | 0.529 ± 0.045 |
| ILCVEFFVSVSV | 0.218 ± 0.0027 | 0.0684 ± 0.008 | 0.2486 ± 0.0024 | 0.163 ± 0.025 | 0.277 ± 0.0064 | 0.136 ± 0.01 | 0.16 ± 0.0059 | 0.23 ± 0.021 |
| LVVAVLKIIMSS | 0.124 ± 0.027 | 0.13 ± 0.023 | 0.201 ± 0.00098 | 0.2 ± 0.033 | 0.349 ± 0.013 | 0.0697 ± 0.012 | 0.0742 ± 0.023 | 0.0596 ± 0.0031 |
| ESSRNILLWRTI | 0.443 ± 0.073 | 0.69 ± 0.041 | 0.7554 ± 0.00093 | 0.641 ± 0.048 | 0.755 ± 0.032 | 0.247 ± 0.046 | 0.264 ± 0.037 | 0.565 ± 0.018 |
| FLFLFIFYFFCC | 0.389 ± 0.083 | 0.269 ± 0.046 | 0.367 ± 0.0077 | 0.327 ± 0.024 | 0.476 ± 0.02 | 0.315 ± 0.0036 | 0.314 ± 0.032 | 0.401 ± 0.06 |
| CWYRAVSIQYVL | 0.306 ± 0.015 | 0.435 ± 0.027 | 0.53 ± 0.025 | 0.367 ± 0.0057 | 0.466 ± 0.021 | 0.26 ± 0.03 | 0.272 ± 0.027 | 0.412 ± 0.0089 |
| VVCLLGIFYGFC | 0.446 ± 0.07 | 0.382 ± 0.023 | 0.497 ± 0.045 | 0.313 ± 0.031 | 0.5138 ± 0.00014 | 0.293 ± 0.021 | 0.307 ± 0.031 | 0.51 ± 0.014 |
| GLWLRVCIVAWV | 0.14 ± 0.0097 | 0.0407 ± 0.01 | 0.122 ± 0.017 | 0.0686 ± 0.031 | 0.19 ± 0.0034 | 0.0424 ± 0.011 | 0.0551 ± 0.013 | 0.144 ± 0.0033 |
| TVGVGWVWVGVL | 0.467 ± 0.015 | 0.5667 ± 0.00058 | 0.611 ± 0.026 | 0.446 ± 0.026 | 0.649 ± 0.015 | 0.367 ± 0.0044 | 0.403 ± 0.015 | 0.576 ± 0.015 |
| NLDRYYKKIKLI | 0.15 ± 0.025 | 0.338 ± 0.025 | 0.69 ± 0.013 | 0.689 ± 0.063 | 0.733 ± 0.019 | 0.052 ± 0.03 | 0.0742 ± 0.029 | 0.0913 ± 0.021 |
| FFSFFLSFRLWF | 0.449 ± 0.11 | 0.365 ± 0.061 | 0.298 ± 0.024 | 0.433 ± 0.038 | 0.456 ± 0.012 | 0.596 ± 0.04 | 0.429 ± 0.038 | 0.434 ± 0.058 |
| FILLHLLGTIRS | 0.438 ± 0.016 | 0.433 ± 0.02 | 0.487 ± 0.0072 | 0.372 ± 0.031 | 0.502 ± 0.023 | 0.337 ± 0.016 | 0.352 ± 0.026 | 0.4948 ± 0.0018 |
| IILAIRLLVDTL | 0.248 ± 0.021 | 0.0479 ± 0.026 | 0.179 ± 0.012 | 0.146 ± 0.025 | 0.266 ± 0.011 | 0.12 ± 0.0039 | 0.132 ± 0.025 | 0.238 ± 0.026 |
| IIVLNIGSVIFC | 0.4951 ± 0.0022 | 0.456 ± 0.063 | 0.5884 ± 0.002 | 0.397 ± 0.018 | 0.5716 ± 0.0053 | 0.387 ± 0.0076 | 0.4057 ± 0.0017 | 0.549 ± 0.028 |
| RLGRYSIIHCLA | 0.15 ± 0.0068 | 0.295 ± 0.023 | 0.459 ± 0.044 | 0.327 ± 0.029 | 0.52 ± 0.021 | 0.0877 ± 0.015 | 0.102 ± 0.028 | 0.0944 ± 0.058 |
